From patent US10450368 (DUKE UNIVERSITY, dated 2019)

Legend:
CH505w136.B18D8gp120 = assay: ELISA
Jo-1 [1] = target: T1, Jo-1 (UniProt P12081 1-509); assay: ELISA, LogAUC grade
T1 sequence: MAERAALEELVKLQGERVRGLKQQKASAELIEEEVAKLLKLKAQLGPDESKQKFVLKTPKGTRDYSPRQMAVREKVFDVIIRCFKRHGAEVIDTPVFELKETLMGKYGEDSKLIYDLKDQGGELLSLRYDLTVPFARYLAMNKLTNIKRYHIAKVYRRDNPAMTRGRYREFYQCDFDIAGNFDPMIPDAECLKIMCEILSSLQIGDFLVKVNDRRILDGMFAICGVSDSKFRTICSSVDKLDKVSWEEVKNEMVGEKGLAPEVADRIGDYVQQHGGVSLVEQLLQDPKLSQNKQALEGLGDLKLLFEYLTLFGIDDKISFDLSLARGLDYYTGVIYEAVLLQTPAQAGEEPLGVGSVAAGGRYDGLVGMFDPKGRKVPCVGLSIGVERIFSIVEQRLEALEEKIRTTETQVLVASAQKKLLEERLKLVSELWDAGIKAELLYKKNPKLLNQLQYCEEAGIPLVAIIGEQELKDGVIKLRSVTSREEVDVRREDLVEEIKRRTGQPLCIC

SSB = target: T2, SSB (UniProt P05455 1-408); assay: ELISA, LogAUC grade
T2 sequence: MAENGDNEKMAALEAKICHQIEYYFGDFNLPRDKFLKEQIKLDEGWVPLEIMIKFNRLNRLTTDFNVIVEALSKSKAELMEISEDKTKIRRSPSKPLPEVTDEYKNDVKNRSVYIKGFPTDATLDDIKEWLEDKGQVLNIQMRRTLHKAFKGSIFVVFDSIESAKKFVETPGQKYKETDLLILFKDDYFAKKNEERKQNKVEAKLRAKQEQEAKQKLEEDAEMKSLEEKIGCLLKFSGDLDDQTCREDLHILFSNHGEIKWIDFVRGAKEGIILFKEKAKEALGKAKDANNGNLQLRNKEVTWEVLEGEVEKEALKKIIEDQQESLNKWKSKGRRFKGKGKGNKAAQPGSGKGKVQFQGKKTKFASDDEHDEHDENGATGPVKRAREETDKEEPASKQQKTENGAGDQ

Scl-70 = target: T3, Scl-70 (UniProt P11387 1-765); assay: ELISA, LogAUC grade
T3 sequence: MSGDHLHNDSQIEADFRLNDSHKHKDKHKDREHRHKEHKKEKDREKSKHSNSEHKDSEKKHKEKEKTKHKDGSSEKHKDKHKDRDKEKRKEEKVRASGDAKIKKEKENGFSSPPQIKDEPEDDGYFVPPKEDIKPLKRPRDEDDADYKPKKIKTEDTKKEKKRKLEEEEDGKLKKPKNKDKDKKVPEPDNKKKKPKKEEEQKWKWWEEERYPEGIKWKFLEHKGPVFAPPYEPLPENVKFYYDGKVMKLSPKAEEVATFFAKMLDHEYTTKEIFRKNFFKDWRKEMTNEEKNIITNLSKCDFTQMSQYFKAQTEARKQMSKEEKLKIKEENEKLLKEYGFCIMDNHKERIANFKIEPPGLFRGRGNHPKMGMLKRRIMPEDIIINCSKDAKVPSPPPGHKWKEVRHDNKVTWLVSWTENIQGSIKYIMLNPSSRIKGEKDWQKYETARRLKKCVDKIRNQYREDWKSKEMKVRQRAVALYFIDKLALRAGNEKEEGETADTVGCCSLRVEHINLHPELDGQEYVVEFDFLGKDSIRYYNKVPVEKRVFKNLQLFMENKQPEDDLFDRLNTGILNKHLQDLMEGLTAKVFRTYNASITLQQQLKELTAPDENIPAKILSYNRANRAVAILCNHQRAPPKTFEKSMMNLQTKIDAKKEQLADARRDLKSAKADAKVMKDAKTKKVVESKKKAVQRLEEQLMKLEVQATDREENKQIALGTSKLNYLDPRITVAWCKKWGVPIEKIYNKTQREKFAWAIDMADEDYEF

CH505w020.14D8gp120 = target: T4, CH505w020.14D8gp120; assay: ELISA
T4 construct: also called CH505w20.14 gp120

CH0505_CON D7gp120/293i = assay: ELISA
CH505w030.20D8gp120/293F = target: T5, CH505w030.20D8gp120/293F; assay: ELISA
T5 construct: also called CH505w30.20 gp120

CH505.w30.12D8gp120 = target: T6, CH505.w30.12D8gp120; assay: ELISA
T6 construct: also called CH505w30.12 gp120

CH505.M19D8gp120 = assay: ELISA
CH505.M5D8gp120293F = assay: ELISA
CH505.M10D8gp120 = assay: ELISA
[2] = target: T7, CH505.TF mutant gp120 M20 (HIV-1); assay: ELISA
T7 construct: domain: gp120

CH505.TF mutant gp120 M8 = target: T8, CH505.TF mutant gp120 M8 (HIV-1); assay: ELISA
T8 construct: domain: gp120

CH505.TF mutant gp120 M6 = target: T9, CH505.TF mutant gp120 M6 (HIV-1); assay: ELISA
T9 construct: domain: gp120

CH505.M9D8gp120/293F = assay: ELISA
CH505.M7D8gp120/293F = assay: ELISA
CH505.M11D8gp120/293F = assay: ELISA
CH505.M21D8gp120/293F = assay: ELISA
Jo-1 [3] = target: T1, Jo-1; assay: AtheNA, Ab 12.5 ug/ml
SSA = target: T10, SSA; assay: AtheNA, Ab 12.5 ug/ml
T10 construct: also called SSA (Ro)

RNP (ribonucleoprotein) = target: T11, RNP (ribonucleoprotein); assay: AtheNA, Ab 12.5 ug/ml
T11 construct: Protein-RNA complex

Sm (Smith antigen) = target: T12, Sm (Smith antigen); assay: AtheNA, Ab 12.5 ug/ml
T12 construct: Protein complex

B1: CH557 (antibody, V domains shown)
VH: QVRLAQYGGGVKRLGATMTLSCVASGYTFNDYYIHWVRQAPGQGFELLGYIDPANGRPDYAGALRERLSFYRDKSMETLYMDLRSLRYDDTAMYYCVRNVGTAGSLLHYDHWGSGSPVIVSS
VL: EIVLTQSPATLSASPGERVTLTCRASRSVRNNVAWYQHKGGQSPRLLIYDASTRAAGVPARFSGSASGTEFTLAISNLESEDFTVYFCLQYNNWWTFGQGTRVDIK
notes: also called CH235.12; CH557_4A/293i
CH505w136.B18D8gp120
  LogAUC: 8.31
Jo-1 [1]
  binding result: no binding
SSB
  binding result: no binding
Scl-70
  binding result: no binding
CH505w020.14D8gp120
  LogAUC: 8.33
CH0505_CON D7gp120/293i
  LogAUC: 8.39
CH505w030.20D8gp120/293F
  LogAUC: 8.59
CH505.w30.12D8gp120
  LogAUC: 2.37
CH505.M19D8gp120
  LogAUC: 4.61
CH505.M5D8gp120293F
  LogAUC: 8.2
CH505.M10D8gp120
  LogAUC: 7.63
[2]
  LogAUC: 0
CH505.TF mutant gp120 M8
  LogAUC: 1.14
CH505.TF mutant gp120 M6
  LogAUC: 8.21
CH505.M9D8gp120/293F
  LogAUC: 0.38
CH505.M7D8gp120/293F
  LogAUC: 0.69
CH505.M11D8gp120/293F
  LogAUC: 7.71
CH505.M21D8gp120/293F
  LogAUC: 0.19

B2: CH235 (antibody, V domains shown)
VH: QVQLVQSGAEVKKPGASVTVSCQASGYTFTNYYVHWVRQAPGQGLQLMGWIDPSWGRTNYAQNFQGRITMTRDTSTSTVYMEMRSLRSEDTAVYYCARNVATEGSLLHYDYWGQGTLVTVSA
VL: EIVLTQSPATLSVSPGERATLSCRASQSVRSNLAWYQQRPGQAPRLLIYGTSTRATGVPARFSGRGSGTEFTLAISSMQSEDFAVYLCLQYNNWWTFGQGTKVEIK
notes: also called CH235_4A
CH505w136.B18D8gp120
  LogAUC: 7.53
Jo-1 [1]
  binding result: no binding
SSB
  binding result: no binding
Scl-70
  binding result: no binding
CH505w020.14D8gp120
  LogAUC: 9.91
CH0505_CON D7gp120/293i
  LogAUC: 9.73
CH505w030.20D8gp120/293F
  LogAUC: 8.33
CH505.w30.12D8gp120
  LogAUC: 7.28
Jo-1 [3]
  AtheNA signal: 3 relative luminescence units
SSA
  AtheNA signal: 13 relative luminescence units
RNP (ribonucleoprotein)
  AtheNA signal: 6 relative luminescence units
Sm (Smith antigen)
  AtheNA signal: 8 relative luminescence units
CH505.M19D8gp120
  LogAUC: 7.13
CH505.M5D8gp120293F
  LogAUC: 11.4
CH505.M10D8gp120
  LogAUC: 10.6
[2]
  LogAUC: 0
CH505.TF mutant gp120 M8
  LogAUC: 0
CH505.TF mutant gp120 M6
  LogAUC: 9.46
CH505.M9D8gp120/293F
  LogAUC: 0
CH505.M7D8gp120/293F
  LogAUC: 0
CH505.M11D8gp120/293F
  LogAUC: 7.59
CH505.M21D8gp120/293F
  LogAUC: 0

B3: CH493 (antibody, V domains shown)
VH: QVRLLQYGGGVKRPGASMTISCVASGYNFNDYYIHWVRQAPGQGLELMGWIDPSGGRTDYAGAFGDRVSMYRDKSMNTLYMDLRSLRSGDTAMYYCVRNVGTAGSLLHYDHWGLGVMVTVSS
VL: EIVLTQSPATLSVSPGERVTLSCRASQSVRNNLAWYRQKRGQAPRLLIYGASTRATGIPARFSGSGSGTEFTLTISSMQSEDFAVYYCQQYNNWWTFGQGTKVEIK
notes: also called CH235.9; DH493
CH505w136.B18D8gp120
  LogAUC: 5.76
CH505w020.14D8gp120
  LogAUC: 8.15
CH0505_CON D7gp120/293i
  LogAUC: 8.67
CH505w030.20D8gp120/293F
  LogAUC: 8.09
CH505.w30.12D8gp120
  LogAUC: 3.17
CH505.M19D8gp120
  LogAUC: 5.95
CH505.M5D8gp120293F
  LogAUC: 9.26
CH505.M10D8gp120
  LogAUC: 10.2
[2]
  LogAUC: 1.04
CH505.TF mutant gp120 M8
  LogAUC: 4.36
CH505.TF mutant gp120 M6
  LogAUC: 8.11
CH505.M9D8gp120/293F
  LogAUC: 1.31
CH505.M7D8gp120/293F
  LogAUC: 0.8
CH505.M11D8gp120/293F
  LogAUC: 8.26
CH505.M21D8gp120/293F
  LogAUC: 1.13

B4: CH241 (antibody, V domains shown)
VH: QVQLVQSGAAVKKPGASVRVSCKASGYTFTSSHIHWVRQAPGQGPEWMGMIDPSVGRPTTAGKFQGRVTMTRDRYTSTAYMDLSSLRSEDTAVYYCARSVETTGSLLYFDYWGQGTLITVSS
VL: EIVLTQSPATLSVSPGERATLSCRASQSVRSNIAWYQQKPGQAPRLLIHGASTRATGIPGRFSGSGSGPEFTLAISSVQSEDFAVYYCQQYNDWWTFGQGTKVEIK
CH505w136.B18D8gp120
  LogAUC: 0.89
Jo-1 [1]
  binding result: no binding
SSB
  binding result: no binding
Scl-70
  binding result: no binding
CH505w020.14D8gp120
  LogAUC: 13.1
CH0505_CON D7gp120/293i
  LogAUC: 13.3
CH505w030.20D8gp120/293F
  LogAUC: 8.03
CH505.w30.12D8gp120
  LogAUC: 9.6
Jo-1 [3]
  AtheNA signal: 6 relative luminescence units
SSA
  AtheNA signal: 14 relative luminescence units
RNP (ribonucleoprotein)
  AtheNA signal: 5 relative luminescence units
Sm (Smith antigen)
  AtheNA signal: 7 relative luminescence units
CH505.M19D8gp120
  LogAUC: 10.4
CH505.M5D8gp120293F
  LogAUC: 14.5
CH505.M10D8gp120
  LogAUC: 14.4
[2]
  LogAUC: 2.15
CH505.TF mutant gp120 M8
  LogAUC: 2.18
CH505.TF mutant gp120 M6
  LogAUC: 13.2
CH505.M9D8gp120/293F
  LogAUC: 0
CH505.M7D8gp120/293F
  LogAUC: 0
CH505.M11D8gp120/293F
  LogAUC: 9.68
CH505.M21D8gp120/293F
  LogAUC: 4.82
